Assay [1] deals with T1, human Nectin-4 on CHO cells transfected with human Nectin-4 cDNA (human, UniProt Q96NY8 32-510).
T1 construct: whole, on cells
T1 sequence (looked up): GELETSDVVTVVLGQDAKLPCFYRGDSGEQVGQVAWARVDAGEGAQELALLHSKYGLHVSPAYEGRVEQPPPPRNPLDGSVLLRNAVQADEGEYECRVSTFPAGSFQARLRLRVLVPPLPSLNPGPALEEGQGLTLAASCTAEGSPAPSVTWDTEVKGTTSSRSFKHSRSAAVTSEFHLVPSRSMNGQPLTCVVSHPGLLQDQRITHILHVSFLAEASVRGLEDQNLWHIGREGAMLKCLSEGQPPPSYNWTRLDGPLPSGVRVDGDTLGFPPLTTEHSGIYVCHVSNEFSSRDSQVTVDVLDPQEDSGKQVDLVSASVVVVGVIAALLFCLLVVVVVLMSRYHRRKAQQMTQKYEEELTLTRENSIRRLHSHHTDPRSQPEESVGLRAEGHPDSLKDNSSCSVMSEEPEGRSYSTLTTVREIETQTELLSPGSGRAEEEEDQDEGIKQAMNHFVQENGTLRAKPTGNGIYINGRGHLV
Briefly: flow cytometry competition on CHO cells with human Nectin-4; competitor Nec1-VCC.

In assay [2] the target is T2, Nectin-4 expressed by normal differentiated human keratinocytes (NHEK) (human, UniProt Q96NY8 32-510).
T2 construct: whole, on cells; also called Nectin-4 on NHEK; keratinocyte Nectin-4
T2 sequence (looked up): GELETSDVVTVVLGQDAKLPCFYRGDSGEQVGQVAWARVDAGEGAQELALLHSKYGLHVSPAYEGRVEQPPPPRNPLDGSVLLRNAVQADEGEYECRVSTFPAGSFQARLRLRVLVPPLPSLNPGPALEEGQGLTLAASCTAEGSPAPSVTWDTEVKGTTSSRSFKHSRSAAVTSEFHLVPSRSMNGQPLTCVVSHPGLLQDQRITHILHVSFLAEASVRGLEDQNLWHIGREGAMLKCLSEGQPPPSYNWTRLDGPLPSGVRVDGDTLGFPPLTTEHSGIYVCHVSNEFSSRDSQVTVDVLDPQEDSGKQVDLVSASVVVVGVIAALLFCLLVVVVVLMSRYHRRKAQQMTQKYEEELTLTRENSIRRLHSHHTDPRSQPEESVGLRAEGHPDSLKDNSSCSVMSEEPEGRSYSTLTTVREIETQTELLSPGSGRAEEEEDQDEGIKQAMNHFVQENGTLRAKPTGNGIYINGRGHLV
In words: flow cytometry on normal differentiated human keratinocytes (NHEK), 8 pM-33 nM; reference of the comparison.

Assay [3] addresses T3, human Nectin-4 with N-terminal Flag epitope tag, on transfected MDA-MB231 cells (human, UniProt Q96NY8 32-510).
T3 construct: whole, on cells; also called PVRL4; PRR4
T3 sequence (looked up): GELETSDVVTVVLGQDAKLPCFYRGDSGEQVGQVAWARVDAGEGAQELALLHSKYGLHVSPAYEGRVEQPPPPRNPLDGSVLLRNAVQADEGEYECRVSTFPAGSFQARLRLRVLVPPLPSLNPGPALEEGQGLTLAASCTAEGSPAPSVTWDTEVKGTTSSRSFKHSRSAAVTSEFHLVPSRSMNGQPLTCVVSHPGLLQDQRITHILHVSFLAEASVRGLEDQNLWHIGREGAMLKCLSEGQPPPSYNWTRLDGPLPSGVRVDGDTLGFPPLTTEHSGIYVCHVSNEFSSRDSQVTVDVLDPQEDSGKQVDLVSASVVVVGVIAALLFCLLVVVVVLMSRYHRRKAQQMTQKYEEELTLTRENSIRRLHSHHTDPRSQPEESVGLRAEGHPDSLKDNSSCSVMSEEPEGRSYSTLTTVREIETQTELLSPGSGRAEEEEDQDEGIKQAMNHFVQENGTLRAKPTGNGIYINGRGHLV
In words: flow cytometry on MDA-MB231 cells transfected with N-terminally Flag-tagged Nectin-4.

Assay [4] addresses T4, Nectin-1 extracellular domain Fc fusion recombinant protein (Nec1-VCC) (UniProt Q15223 31-355, limits assumed).
T4 construct: extracellular domain; also called Nectin-1-VCC-Fc; not shown: Fc part
T4 sequence (looked up): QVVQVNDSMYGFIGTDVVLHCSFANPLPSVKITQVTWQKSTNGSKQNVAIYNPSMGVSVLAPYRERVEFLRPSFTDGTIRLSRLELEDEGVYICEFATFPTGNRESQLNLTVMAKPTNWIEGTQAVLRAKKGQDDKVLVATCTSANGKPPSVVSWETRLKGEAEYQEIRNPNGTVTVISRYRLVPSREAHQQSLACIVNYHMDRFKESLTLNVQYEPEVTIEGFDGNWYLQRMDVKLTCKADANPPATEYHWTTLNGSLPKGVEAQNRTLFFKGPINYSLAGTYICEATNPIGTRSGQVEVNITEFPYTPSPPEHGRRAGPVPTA
In words: ELISA, Nec1-VCC coated on plate, peroxidase-conjugated Ch-15A7.5.

Assay [5] has as its target T5, Nectin-4 extracellular domain Fc fusion recombinant protein (Nec4-VCC) (human, UniProt Q96NY8 32-349).
T5 construct: extracellular domain; also called Nectin-4-VCC-Fc; not shown: Fc part
T5 sequence (looked up): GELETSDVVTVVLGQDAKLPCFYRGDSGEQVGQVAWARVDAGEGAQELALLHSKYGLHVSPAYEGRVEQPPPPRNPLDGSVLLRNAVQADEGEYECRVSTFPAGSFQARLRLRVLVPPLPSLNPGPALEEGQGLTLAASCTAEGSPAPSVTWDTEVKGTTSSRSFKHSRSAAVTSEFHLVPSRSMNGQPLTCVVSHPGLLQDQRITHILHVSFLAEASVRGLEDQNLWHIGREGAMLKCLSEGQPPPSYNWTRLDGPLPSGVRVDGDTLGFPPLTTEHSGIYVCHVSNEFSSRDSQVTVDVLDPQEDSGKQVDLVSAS
Briefly: statement in the legend of the competition ELISA on coated Nec4-VCC.

B1: Ch-5A12.2 (antibody, V domains shown)
VH: QIQLQQSGAELVKPGASVTLSCKTSGFTFNSMYISWLKQKPGQSLEWIAWIYAGTGGTRFNQKFTGKVQLTVDTSSSTAYMQFSSLTTDDSAIYYCAIRSGFVPMDYWGQGTSVTVSS
VL: SIVMTQTPKFLLVSAGDRVTITCKASQSVSNDVAWYQQKPGQSPKLLIYYASNRYTGVPDRFTGSGYGTDFTFTISTVQAEDLAVYFCQQDYSSPWTFGGGTKLEIK
notes: also called 5A12.2 mAb; chimeric 5A12.2
As for B1, the binding result in assay [1], in assay [2] and in assay [3] was “binds” each time.

B2: Ch-15A7.5 (antibody, V domains shown)
VH: EVKLVESGGGLVQPGGSRKLSCAASGFTFSNYGMAWVRQAPGKGPEWVAFISNLAYGINYADTVTGRFTISRENAKNTLYLEMRSLRSEDTAMYYCARGARATGWFAYWGQGTLVTVSA
VL: DIVMTQSQKFMSTSIGDRVSVTCKASQNVDTHVAWYQEKPGQSPKALIYSASYRYSGVPDRFTGSGSGTDFTLTISNVQSEDLADYFCQQYNSYPLTFGGGTKLEIK
notes: also called Ch-15A7.5 mAb; Ch-15A7 mAb
For B2, in assay [4], the binding result is on record as “no binding (tested: 10nM)”.

B3: HA22 (enfortumab) (antibody, V domains shown)
VH: EVQLVESGGGLVQPGGSLRLSCAASGFTFSSYNMNWVRQAPGKGLEWVSYISSSSSTIYYADSVKGRFTISRDNAKNSLSLQMNSLRDEDTAVYYCARAYYYGMDVWGQGTTVTVSS
VL: DIQMTQSPSSVSASVGDRVTITCRASQGISGWLAWYQQKPGKAPKFLIYAASTLQSGVPSRFSGSGSGTDFTLTISSLQPEDFATYYCQQANSFPPTFGGGTKVEIK
notes: also called 恩弗妥单抗; HA22 mAb
In the case of B3, the binding result in assay [5] is reported as “binds”.

The values above are taken from patent CN117751139A (YONGXIAN PHARMACEUTICAL CO LTD; UNIV AIX MARSEILLE; INST …, dated 2024).
